Source: patent publication US20150267232A1, “IN VIVO AND IN VITRO CARBENE INSERTION AND NITRENE TRANSFER REACTIONS CATALYZED BY HEME ENZYMES” (California Institute of Technology, priority 2012, published 2015)

Experiments:
[1] = P450BM3 compilation plate screen (GC, cyclopropane peaks); assay type: biochemical; conditions: P450BM3 variants
[2] = N—H insertion, aniline with ethyl diazo acetate (EDA); assay type: biochemical; conditions: protein 10 uM, EDA 8.5 mM, aniline 20 mM, Na2S2O4 10 mM, 12 h
Text: We have found a variety of P450 variants to be general catalysts for carbenoid N—H insertion. We combined aniline with EDA in the presence of a reductant (Na2S2O4) under argon atmosphere and tested the mixture with seven P450BM3 variants previously identified as competent catalysts for cyclopropanation (Coelho, P. et al., Science. 2013, 339, 307-310). In choosing this set of P450s, we hypothesized that cyclopropanation activity could correlate with ability to generate the iron-carbenoid intermediate that is also necessary for N—H insertion. Whereas wild type BM3 (WT-BM3 (SEQ ID NO:1), Table 20, entry 1) provided only trace amounts of the desired product (4.3), a few variants gave 4.3 in good yields after 12 h at room temperature. In particular, variant H2-5-F10 which is derived from a thermostable P450BM3 lineage (Lewis, J. C. et al. ChemBioChem, 2010, 11, 2502-2505) and contains 15 mutation from WT-BM3 (SEQ ID NO:1), formed 4.3 in 47% yield and 473 turnovers (TTN) using 0.1% protein relative to EDA (entry 7). […] In contrast, when 1 mol % of the isolated hemin prosthetic group was used as catalyst, the single and double insertion products were produced in a 3.5 to 1 ratio (with a total product yield of 51%).
A representative procedure for P450-catalyzed N—H insertion is as follows. To an unsealed crimp vial, 60 μL of a P450 solution (67 or 133 μM) was added and the vial was sealed. A 12.5 mM solution of sodium dithionite in phosphate buffer (0.1 M, pH=8.0) was degassed by bubbling with argon in a 6 mL crimp-sealed vial. The headspace of the 2 mL vials containing P450 solution were flushed with argon (no bubbling). The buffer/dithionite solution (360 μL) was then added to each reaction vial via syringe, and the gas lines were disconnected from the vials. 10 μL of an 800 mM stock of aniline was added via a glass syringe, followed by 10 μL of a 340 mM stock of EDA (both stocks in MeOH). The reaction vials were then placed in a tray on a plate shaker and left to shake at 40 rpm. The final concentrations of the reagents were typically: 20 mM aniline, 8.5 mM EDA, 10 mM Na2S2O4, and 10 or 20 μM P450. After 12 h at 25° C., the vials were removed from the shaker and uncapped and 1 mL of cyclohexane was added, followed by 20 μL of a 20 mM solution of phenethyl alcohol (internal standard). The mixture was transferred to a 1.5 mL Eppendorf tube and vortexed and centrifuged (13,000×g, 1 min.). The organic layer was dried over sodium sulfate if necessary then analyzed by GC, with comparison to an authentically prepared sample that has been verified by proton NMR ([…], Varian, CDCl3).
Substitution is well-tolerated on the aniline partner on both the ortho and para positions. Reactions were analyzed by a Shimadzu GC with FID detector and J&W HP-5 column (30 m×0.32 mm, 0.25 μm film) and calibrated to an independently prepared sample of each product using phenethyl alcohol as internal standard. Reaction of aniline and EDA was also performed in milligram scale without any organic cosolvent to provide 4.3 in 65% isolated yield.
Calibration curves were plotted as follows. Yields of N—H insertion products were determined using calibration curves made with independently synthesized standards that have been verified by proton NMR, with comparison to known literature data (Baumann, L. K. et al. Organometallics. 2007, 26, 3995-4002; Anding, B. J. et al. Organometallics. 2013, 32, 2599-2607). Two stock solutions of product were made at 160 mM and 40 mM. To four or five samples containing 380 μL of buffer, product was added from either of the stock solutions such at a final concentration of 0.5-8.0 mM in 400 μL was obtained. 20 μL of internal standard was added to each eppendorf tube, then 1 mL of cyclohexane was added and the tubes were vortexed and centrifuged (13,000 ×g, 30 seconds). The organic layer was then analyzed by GC. The ratio of the areas under the internal standard and product peaks were plotted against the concentration for each solution. […]

B1: H2A10: 9-10A TS + F87V, L75A, L181A, T268A (protein, listed as Bacillus megaterium)
chain: TIKEMPQPKTFGELKNLPLLNTDKPVQALMKIADELGEIFKFEAPGRVTRYLSSQRLIKEACDESRFDKNLSQAAKFARDFAGDGLVTSWTHEKNWKKAHNILLPSFSQQAMKGYHAMMVDIAVQLVQKWERLNADEHIEVSEDMTRLTLDTIGLCGFNYRFNSFYRDQPHPFIISMVRAADEVMNKLQRANPDDPAYDENKRQFQEDIKVMNDLVDKIIADRKARGEQSDDLLTQMLNGKDPETGEPLDDGNIRYQIITFLIAGHEATSGLLSFALYFLVKNPHVLQKVAEEAARVLVDPVPSYKQVKQLKYVGMVLNEALRLWPTAPAFSLYAKEDTVLGGEYPLEKGDEVMVLIPQLHRDKTVWGDDVEEFRPERFENPSAIPQHAFKPFGNGQRACIGQQFALHEATLVLGMMLKHFDFEDHTNYELDIKETLTLKPKGFVVKAKSKKIPLGGIPSPSTEQSAKKVRKKAENAHNTPLLVLYGSNMGTAEGTARDLADIAMSKGFAPQVATLDSHAGNLPREGAVLIVTASYNGHPPDNAKQFVDWLDQASADEVKGVRYSVFGCGDKNWATTYQKVPAFIDETLAAKGAENIADRGEADASDDFEGTYEEWREHMWSDVAAYFNLDIENSEDNKSTLSLQFVDSAADMPLAKMHGAFSTNVVASKELQQPGSARSTRHLEIELPKEASYQEGDHLGVIPRNYEGIVNRVTARFGLDASQQIRLEAEEEKLAHLPLAKTVSVEELLQYVELQDPVTRTQLRAMAAKTVCPPHKVELEALLEKQAYKEQVLAKRLTMLELLEKYPACEMKFSEFIALLPSIRPRYYSISSSPRVDEKQASITVSVVSGEAWSGYGEYKGIASNYLAELQEGDTITCFISTPQSEFTLPKDPETPLIMVGPGTGVAPFRGFVQARKQLKEQGQSLGEAHLYFGCRSPHEDYLYQEELENAQSEGIITLHTAFSRMPNQPKTYVQHVMEQDGKKLIELLDQGAHFYICGDGSQMAPAVEATLMKSYADVHQVSEADARLWLQQLEEKGRYAKDVWAG
modifications: cytochrome P450NADPH-P-450 reductase precursor, cytochrome P450 (BM3), CYP102A1
notes: 9-10A TS + F87V, L75A, L181A, T268A
- ee (cis) ([1]; (R,S)-(S,R), chiral β-CDX GC): −94
- de ([1]; diastereomeric excess = ([cis] − [trans])/([cis] + [trans])): −8
- Absolute activity ([1]; sum of the area of the cyclopropane peaks over the area of the internal standard): 0.06642
- TTn [2]: 238
- % Yield ([2]; product 4.3): 24%
